From article PMC11984658 (Journal of structural biology, 2024)

B1: RAD52(1–303) (domain or fragment, human, UniProt P43351 1-303, looked up)
chain: MSGTEEAILGGRDSHPAAGGGSVLCFGQCQYTAEEYQAIQKALRQRLGPEYISSRMAGGGQKVCYIEGHRVINLANEMFGYNGWAHSITQQNVDFVDLNNGKFYVGVCAFVRVQLKDGSYHEDVGYGVSEGLKSKALSLEKARKEAVTDGLKRALRSFGNALGNCILDKDYLRSLNKLPRQLPLEVDLTKAKRQDLEPSVEEARYNSCRPNMALGHPQLQQVTSPSRPSHAVIPADQDCSSRSLSSSAVESEATHQRKLRQKQLQQQFRERMEKQQVRVSTPSAEKSEAAPPAPPVTHSTPVT
B2: RAD52(1–212) (domain or fragment, human, UniProt P43351 1-212, looked up)
chain: MSGTEEAILGGRDSHPAAGGGSVLCFGQCQYTAEEYQAIQKALRQRLGPEYISSRMAGGGQKVCYIEGHRVINLANEMFGYNGWAHSITQQNVDFVDLNNGKFYVGVCAFVRVQLKDGSYHEDVGYGVSEGLKSKALSLEKARKEAVTDGLKRALRSFGNALGNCILDKDYLRSLNKLPRQLPLEVDLTKAKRQDLEPSVEEARYNSCRPNM

Key:
SEC-MALS = target: the molecule itself; experiment: SEC-MALS
SAXS = target: the molecule itself; experiment: SAXS

Protein	stoichiometry N (SEC-MALS) [subunits]	stoichiometry N (SAXS) [subunits]
B1	9.5	–
B2	9.7	10
